The target in assay [1] is T1, Recombinant human OX40-His protein (human, UniProt P43489 29-214, limits assumed).
T1 construct: Recombinant antigen protein; also called recombinant human OX-40 protein; human OX-40 protein; not shown: His tag
T1 sequence (looked up): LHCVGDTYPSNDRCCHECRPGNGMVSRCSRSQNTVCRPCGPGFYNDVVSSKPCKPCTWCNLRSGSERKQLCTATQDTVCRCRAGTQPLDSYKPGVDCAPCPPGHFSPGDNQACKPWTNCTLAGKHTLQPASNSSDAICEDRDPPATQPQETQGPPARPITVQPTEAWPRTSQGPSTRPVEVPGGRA
The assay is described as follows: kinetic ranking (RU, 1:1 binding model), prokaryotically expressed antibody product as ligand, OX40-His as analyte.

Assay [2] deals with T1, Recombinant human OX40-His protein. The assay is described as follows: SPR (Biacore 8K), OX40-HIS coupled to chip, antibody as analyte, 1:1 binding model. The method, then: The chip surface was equilibrated with HBS-EP buffer at a flow rate of 10 μl/min for 5 min, and then a 1:1 mixture of “NHS+EDC” was injected at a flow rate of 10 μl/min for 100 sec to activate the chip. The antigen protein (OX40-HIS) diluted in 10 mM sodium acetate buffer was injected for about 180 sec at a flow rate of 10 μl/min for coupling, and finally ethanolamine was injected for 200 sec at a flow rate of 10 μl/min to block the surface.
Three pre-cycles were performed with the HBS-EP buffer as a sample to balance the chip to stabilize the baseline. A low concentration of antibody was injected at a flow rate of 30 μl/min for 200 sec, to allow the antigen to bind to the antibody, and then the buffer was injected at a flow rate of 30 μl/min for 400 sec for dissociation. 10 mM Gly-HCl pH2.0 was injected three times each for 30 sec at a flow rate of 30 μl/min for regeneration, to complete one cycle.
The antibody concentration was changed to carry out the cycle for measurement at a next gradient concentration until all gradient concentrations (2.5 nM, 5 nM, 10 nM, 20 nM, 40 nM, and […]) and the replicate (such as 20 nM) were tested. The experimental data was double subtracted (minus the background values of the control channel and zero concentration), and fitted to the “1:1 binding” model in the Biacore 8K evaluation software. Biacore 8K was used to determine the affinity of the antibody to the OX40-HIS recombinant protein.
On the technique in general: In SPR one partner is held on a chip, and binding of the other changes the refractive index at the surface.

Assay [3] has as its target T2, Recombinant monkey OX-40 protein (monkey).
T2 chain: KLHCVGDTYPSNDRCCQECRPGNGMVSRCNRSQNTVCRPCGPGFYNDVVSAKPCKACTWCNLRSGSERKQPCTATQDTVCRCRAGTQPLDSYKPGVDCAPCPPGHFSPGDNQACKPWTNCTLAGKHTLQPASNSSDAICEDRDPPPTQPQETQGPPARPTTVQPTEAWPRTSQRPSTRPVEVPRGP
The assay is described as follows: ELISA, plate coated with recombinant monkey OX-40 protein, antibody titrated.

In assay [4] the target is T3, OX40 on a functional cell line overexpressing OX40 (UniProt P43489 29-277, limits assumed).
T3 sequence (looked up): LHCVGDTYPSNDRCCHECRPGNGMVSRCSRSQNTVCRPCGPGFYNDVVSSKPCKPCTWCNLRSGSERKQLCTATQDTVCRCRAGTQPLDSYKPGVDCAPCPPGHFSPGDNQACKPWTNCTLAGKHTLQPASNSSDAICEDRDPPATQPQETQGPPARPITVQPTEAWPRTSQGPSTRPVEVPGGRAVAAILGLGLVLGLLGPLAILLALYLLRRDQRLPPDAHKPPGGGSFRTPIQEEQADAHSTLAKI
The assay is described as follows: cell-based or functional assay.

For assay [5], the target named is T1, Recombinant human OX40-His protein. The assay is described as follows: ELISA, plate coated with recombinant human OX-40 protein, antibody titrated. The method, then: Recombinant human OX-40 protein and recombinant monkey OX-40 protein were respectively used to detect the cross-recognition ability of humanized monoclonal antibodies for human/monkey OX-40 protein.
The ELISA plate (Nunc) was coated with 100 μl/well of […] recombinant OX40-His protein in PBS at 4° C. overnight. The plate was washed with PBS-T (0.05% Tween) and blocked with 200 μl/well of PBST containing 1% BSA at 37° C. for 0.5 hr. Then the blocking buffer was discarded, 100 μl of 1000 ng/ml purified antibody was added to the first well, 3-fold serial dilutions were made, and a total of 11 test concentration gradients were given. Then the system was incubated for 1 hr at room temperature. The plate was washed three times with PBST and incubated with 100 μl/well of horseradish peroxidase-conjugated goat anti-human Fab fragment-IgG (Fab-specific) (GenScript) at 37° C. for 0.5 hr. The plate was washed 5 times with PBST, and then a TMB developing solution (GenScript) was added and incubated at room temperature for 15 min in the dark. The reaction was terminated by adding 50 μl of 1 M HCl stop solution (Sigma). The plate was read at 450 nm on a microplate reader.
For orientation: ELISA stands for enzyme-linked immunosorbent assay.

Positions count from the first letter of the chain named.

B1: AH02906, prokaryotically expressed antibody product (back-mutation screening) (Fab, V domains shown)
VH: QVQLVQSGAEVKKPGASVKVSCKASGYTFTDYSMHWVKQAPGQGLEWMGWISTETGEPTYADDFKGRFTITLDTSASTAYMELSSLRSEDTAVYYCARVRPWYLAVWGQGTLVTVSS
VL: DIQMTQSPSSLSASVGDRVTITCRASQDISNYLNWYQQKPGKAPKLLIYYTSRLYSGVPSRFSGSGSGTDYTLTISSLQPEDIATYFCQQANTLPLTFGGGTKLEIK
The term Kd denotes a measure of binding affinity in units of concentration. Broadly, the koff is a measure of how fast the partners let go of each other. For orientation: kon means a measure of how fast the partners come together. Turning to B1, in assay [1], the Kd was 15.6 nM, the off-rate constant (koff) was determined as 0.00511 s⁻¹ and the kon came out at 328000 M⁻¹ s⁻¹.

B2: AH02906 humanized anti-human OX40 monoclonal antibody (recombinant human IgG1/kappa) (antibody, V domains shown)
VH: B1 VH
VL: B1 VL
Take B2: in assay [2], the equilibrium dissociation constant (Kd) is 2.83 nM, the off-rate (koff) was 0.00116 s⁻¹ and the on-rate (kon) was determined as 408000 M⁻¹ s⁻¹.

B3: AH02917, prokaryotically expressed antibody product (back-mutation screening) (Fab, V domains shown)
VH: B1 VH with Y95F
VL: B1 VL with P44V, Y71F, F87Y
As to B3, in assay [1], the dissociation constant (Kd) was 13.7 nM, the off-rate constant (koff) is 0.00396 s⁻¹ and the kon was 288000 M⁻¹ s⁻¹.

B4: AH02913, prokaryotically expressed antibody product (back-mutation screening) (Fab, V domains shown)
VH: B1 VH with A9P, F68V, Y95F
VL: B1 VL with P44V, L73F
For B4, in assay [1], the Kd amounted to 12.5 nM, the koff stood at 0.00425 s⁻¹ and the on-rate (kon) worked out at 339000 M⁻¹ s⁻¹.

B5: AH02916 humanized anti-human OX40 monoclonal antibody (recombinant human IgG1/kappa) (antibody, V domains shown)
VH: B1 VH with F68V
VL: B1 VL with P44V, L73F
A word on the EC50: it is the concentration giving half of the maximal effect. Take B5: in assay [2], the dissociation constant Kd amounted to 2.46 nM, the off-rate constant (koff) was 0.000659 s⁻¹ and the kon is 268000 M⁻¹ s⁻¹. Moreover, in assay [3], the EC50 worked out at 0.0323 µg/mL. Also, in assay [4], the “IL-8 secretion by OX40 overexpressing functional cell line, EC50” value was found to be 3 nM; the “IL-8 secretion by OX40 overexpressing functional cell line, best-fit value Bottom” value came out at 3590; the “IL-8 secretion by OX40 overexpressing functional cell line, best-fit value LogEC50” value turned out to be 0.476; the “IL-8 secretion by OX40 overexpressing functional cell line, best-fit value Top” value came out at 24600. The EC50 in assay [5] came out at 0.0131 µg/mL.

B6: AH02916, prokaryotically expressed antibody product (back-mutation screening) (Fab, V domains shown)
VH: B1 VH with F68V
VL: B1 VL with P44V, L73F
For B6, in assay [1], the Kd was 15.7 nM, the koff was 0.00384 s⁻¹ and the on-rate constant (kon) came out at 245000 M⁻¹ s⁻¹.

B7: AH02915, prokaryotically expressed antibody product (back-mutation screening) (Fab, V domains shown)
VH: B1 VH with F68V, M81L, L83I
VL: B1 VL with Y71F
For B7, in assay [1], the Kd is 14.3 nM, the koff is 0.00307 s⁻¹ and the on-rate (kon) came to 215000 M⁻¹ s⁻¹.

B8: AH02919, prokaryotically expressed antibody product (back-mutation screening) (Fab, V domains shown)
VH: B1 VH with F68V, L72R, M81L, L83I, Y95F
VL: B1 VL with P44V, F87Y
Regarding B8, in assay [1], the dissociation constant (Kd) came to 15.1 nM, the dissociation rate constant (koff) was 0.00505 s⁻¹ and the kon turned out to be 335000 M⁻¹ s⁻¹.

B9: AH02913 humanized anti-human OX40 monoclonal antibody (recombinant human IgG1/kappa) (antibody, V domains shown)
VH: B1 VH with A9P, F68V, Y95F
VL: B1 VL with P44V, L73F
On to B9, for which, in assay [2], the Kd is 1.76 nM, the off-rate constant (koff) worked out at 0.00067 s⁻¹ and the on-rate (kon) is 381000 M⁻¹ s⁻¹. Further, the 50% effective concentration (EC50) in assay [3] was 0.0353 µg/mL. Further, in assay [4], the “IL-8 secretion by OX40 overexpressing functional cell line, EC50” value is 1.62 nM; the “IL-8 secretion by OX40 overexpressing functional cell line, best-fit value Bottom” value worked out at 3950; the “IL-8 secretion by OX40 overexpressing functional cell line, best-fit value LogEC50” value is 0.209; the “IL-8 secretion by OX40 overexpressing functional cell line, best-fit value Top” value worked out at 24200. The 50% effective concentration (EC50) in assay [5] came out at 0.0161 µg/mL.

B10: AH02915 humanized anti-human OX40 monoclonal antibody (recombinant human IgG1/kappa) (antibody, V domains shown)
VH: B1 VH with F68V, M81L, L83I
VL: B1 VL with Y71F
Take B10: in assay [2], the Kd came to 3 nM, the dissociation rate constant (koff) worked out at 0.00142 s⁻¹ and the on-rate constant (kon) came out at 472000 M⁻¹ s⁻¹.

B11: AH02922, prokaryotically expressed antibody product (back-mutation screening) (Fab, V domains shown)
VH: B1 VH with V20I, K38R, G44R, F68V, L72R, A105V
VL: B1 VL with F87Y
For the molecule B11, in assay [1], the dissociation constant Kd turned out to be 2.37 nM, the dissociation rate constant (koff) was 0.000534 s⁻¹ and the on-rate constant (kon) was 225000 M⁻¹ s⁻¹.

B12: AH02925, prokaryotically expressed antibody product (back-mutation screening) (Fab, V domains shown)
VH: B1 VH with F68V, L72R, M81L, L83I, Y95F
VL: B1 VL with P44V, Y71F, F87Y
In the case of B12, in assay [1], the equilibrium dissociation constant (Kd) was found to be 14.9 nM, the off-rate (koff) was 0.00439 s⁻¹ and the kon is 295000 M⁻¹ s⁻¹.

B13: AH02921, prokaryotically expressed antibody product (back-mutation screening) (Fab, V domains shown)
VH: B1 VH with A9P, K38R, M81L, L83I, Y95F, A105T
VL: B1 VL
Consider B13, for which, in assay [1], the Kd came out at 3.35 nM, the koff was 0.0013 s⁻¹ and the on-rate constant (kon) was found to be 388000 M⁻¹ s⁻¹.

B14: AH02923, prokaryotically expressed antibody product (back-mutation screening) (Fab, V domains shown)
VH: B1 VH with K38R, I70F, M81L
VL: B1 VL with P44V, L73F, F87Y
With B14, in assay [1], the Kd was found to be 10.8 nM, the off-rate (koff) is 0.00344 s⁻¹ and the kon came to 317000 M⁻¹ s⁻¹.

B15: AH02922 humanized anti-human OX40 monoclonal antibody (recombinant human IgG1/kappa) (antibody, V domains shown)
VH: B1 VH with V20I, K38R, G44R, F68V, L72R, A105V
VL: B1 VL with F87Y
As to B15, in assay [2], the Kd came out at 1.36 nM, the off-rate constant (koff) stood at 0.00029 s⁻¹ and the on-rate constant (kon) was determined as 213000 M⁻¹ s⁻¹.

B16: AH02917 humanized anti-human OX40 monoclonal antibody (recombinant human IgG1/kappa) (antibody, V domains shown)
VH: B1 VH with Y95F
VL: B1 VL with P44V, Y71F, F87Y
B16: in assay [2], the Kd is 2.6 nM, the off-rate constant (koff) was 0.00106 s⁻¹ and the kon worked out at 407000 M⁻¹ s⁻¹.

B17: AH02925 humanized anti-human OX40 monoclonal antibody (recombinant human IgG1/kappa) (antibody, V domains shown)
VH: B1 VH with F68V, L72R, M81L, L83I, Y95F
VL: B1 VL with P44V, Y71F, F87Y
Turning to B17, in assay [2], the dissociation constant (Kd) came to 2.22 nM, the off-rate constant (koff) stood at 0.00115 s⁻¹ and the kon amounted to 520000 M⁻¹ s⁻¹.

B18: Chimeric antibody (anti-human OX40, recombinant, human IgG1/kappa constant regions) (antibody, V domains shown)
VH: QIQLVQSGPELKKPGETVKISCKASGYTFTDYSMHWVKQAPGKGLKWMGWISTETGEPTYADDFKGRFAFSLETSASTAYLQIKNLKNEDTASYFCARVRPWYLAVWGAGTTVTVSS
VL: DIQMTQTTSSLSASLGDRVTISCRASQDISNYLNWYQQKPDGTVKLLIYYTSRLYSGVPSRFSGSGSGADYSLTVSNLEQEDIATYFCQQANTLPLTFGAGTKLELK
Turning to B18, in assay [2], the equilibrium dissociation constant (Kd) is 2.4 nM, the koff turned out to be 0.000814 s⁻¹ and the on-rate (kon) turned out to be 339000 M⁻¹ s⁻¹. The half-maximal effective concentration (EC50) in assay [3] amounted to 0.0618 µg/mL. Moreover, the EC50 in assay [5] came to 0.0138 µg/mL.

These data come from US20220119540A1 (NANJING GENSCRIPT BIOTECH, published 2022).
